Substitutions are numbered along the chain they refer to.
Legend:
[1] = molecular target: T1, human CB2 (on TRex-CHO cells) (human, UniProt P34972 1-360); assay: flow cytometry, mean fluorescence intensity against antibody concentration, TRex-CHO human CB2 cells
T1 construct: whole, on cells; also called TRexCHO Human CB2; CB2 expression cell line

[2] = molecular target: T2, mouse CB1 (on TRex-CHO cells) (mouse, UniProt P47746 1-473); assay: flow cytometry, mean fluorescence intensity against antibody concentration, TRex-CHO mouse CB1 cells
T2 construct: whole, on cells; also called TRexCHO Mouse CB1

[3] = molecular target: T3, native full length human CB1 receptor (TRex-CHO A156 cells) (human, UniProt P21554 1-472); assay: cell-based or functional assay
[4] = molecular target: T3, native full length human CB1 receptor …; assay: cell-based or functional assay; remark: listed apart in the source
[5] = molecular target: T3, native full length human CB1 receptor …; assay: cell-based or functional assay; remark: listed apart in the source
[6] = molecular target: T3, native full length human CB1 receptor …; assay: cell-based or functional assay; remark: listed apart in the source
[7] = molecular target: T3, native full length human CB1 receptor …; assay: cell-based or functional assay; remark: listed apart in the source
[8] = molecular target: T3, native full length human CB1 receptor …; assay: cell-based or functional assay; remark: listed apart in the source
[9] = molecular target: T3, native full length human CB1 receptor …; assay: cell-based or functional assay; remark: listed apart in the source
[10] = molecular target: T2, mouse CB1 (on TRex-CHO cells); assay: flow cytometry on cells expressing mouse CB1
[11] = molecular target: T3, native full length human CB1 receptor …; assay: cell-based or functional assay; remark: listed apart in the source

T2 sequence (P47746 whole entry): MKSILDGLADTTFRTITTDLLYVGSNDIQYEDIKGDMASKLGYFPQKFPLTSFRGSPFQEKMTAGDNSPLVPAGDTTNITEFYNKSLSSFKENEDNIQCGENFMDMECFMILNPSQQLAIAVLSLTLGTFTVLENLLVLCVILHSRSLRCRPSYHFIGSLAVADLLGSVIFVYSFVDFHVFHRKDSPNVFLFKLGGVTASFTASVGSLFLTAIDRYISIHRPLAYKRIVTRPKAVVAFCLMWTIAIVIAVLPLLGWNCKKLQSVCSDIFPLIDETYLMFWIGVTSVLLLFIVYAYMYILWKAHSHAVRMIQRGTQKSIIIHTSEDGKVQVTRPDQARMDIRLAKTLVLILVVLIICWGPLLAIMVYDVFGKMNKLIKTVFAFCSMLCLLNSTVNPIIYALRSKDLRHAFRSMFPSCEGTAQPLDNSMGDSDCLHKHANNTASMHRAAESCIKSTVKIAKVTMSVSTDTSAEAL
T1 sequence (P34972 whole entry): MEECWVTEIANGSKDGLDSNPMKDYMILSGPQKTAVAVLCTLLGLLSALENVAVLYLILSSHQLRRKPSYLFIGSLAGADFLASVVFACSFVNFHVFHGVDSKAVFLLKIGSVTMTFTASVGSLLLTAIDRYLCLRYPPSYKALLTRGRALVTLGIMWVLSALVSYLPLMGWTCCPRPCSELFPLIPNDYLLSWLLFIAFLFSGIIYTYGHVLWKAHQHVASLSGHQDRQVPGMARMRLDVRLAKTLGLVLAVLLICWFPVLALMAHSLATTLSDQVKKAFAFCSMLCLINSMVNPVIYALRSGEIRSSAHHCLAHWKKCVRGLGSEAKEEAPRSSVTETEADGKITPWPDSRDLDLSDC
T3 sequence (P21554 whole entry): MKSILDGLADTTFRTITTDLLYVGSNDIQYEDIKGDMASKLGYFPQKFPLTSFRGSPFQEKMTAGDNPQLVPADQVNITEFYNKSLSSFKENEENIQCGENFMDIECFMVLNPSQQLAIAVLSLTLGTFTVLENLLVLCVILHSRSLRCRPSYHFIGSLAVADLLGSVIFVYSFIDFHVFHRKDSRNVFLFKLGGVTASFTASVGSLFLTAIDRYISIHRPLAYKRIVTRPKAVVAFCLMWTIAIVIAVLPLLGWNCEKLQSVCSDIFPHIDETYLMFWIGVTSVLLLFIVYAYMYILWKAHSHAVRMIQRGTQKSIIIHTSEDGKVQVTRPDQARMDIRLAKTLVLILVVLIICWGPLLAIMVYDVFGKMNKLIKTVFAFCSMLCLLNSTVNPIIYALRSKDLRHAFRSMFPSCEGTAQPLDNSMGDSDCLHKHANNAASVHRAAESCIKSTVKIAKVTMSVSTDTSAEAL

B1: P1C4-h2-IgG1 (antibody)
heavy: not shown
light: EIVLTQSPATLSLSPGERATLSCRASQSVSSSYLHWYQQKPGQAPRLLIYSTSNLASGIPARFSGSGSGTDFTLTISRLEPEDFAVYYCHQYHRSPPTFGQGTKVEIKRTVAAPSVFIFPPSDEQLKSGTASVVCLLNNFYPREAKVQWKVDNALQSGNSQESVTEQDSKDSTYSLSSTLTLSKADYEKHKVYACEVTHQGLSSPVTKSFNRGEC
[1]
  binding result: no binding (tested: about 300 nM)
[2]
  binding result: no binding (tested: about 300 nM)

B2: P1C4-h0-IgG1 (antibody, V domains shown)
VH: QVQLVQSGAEVKKPGSSVKVSCKASGGTFSYYWMNWVRQAPGQGLEWMGQIYPGDGETKYAQKFQGRVTITADKSTSTAYMELSSLRSEDTAVYYCARSHGNYLPYWGQGTLVTVSS
VL: EIVLTQSPATLSLSPGERATLSCRASQSVSSSYLHWYQQKPGQAPRLLIYSTSNLASGIPARFSGSGSGTDFTLTISRLEPEDFAVYYCHQYHRSPPTFGQGTKVEIKR
[3]
  IC50, cAMP functional assay, native human CB1 TRex-CHO cells: 146 nM
[4]
  cAMP IC50, antagonist assay; Mean of Batch 1 [n]: 158 nM
  cAMP IC50, antagonist assay; Mean of Batch 2 [n]: 343 nM
[1]
  binding result: no binding (tested: about 300 nM)
[2]
  binding result: no binding (tested: about 300 nM)

B3: P1C4-h4-IgG1 (antibody)
heavy: not shown
light: B1 light
notes: also called P1C4-H4 (YENG); P1C4-H4 (YENG)-IgG
[1]
  binding result: no binding (tested: about 300 nM)
[2]
  binding result: no binding (tested: about 300 nM)

B4: P1C4-H4-IgG4 (antibody)
heavy: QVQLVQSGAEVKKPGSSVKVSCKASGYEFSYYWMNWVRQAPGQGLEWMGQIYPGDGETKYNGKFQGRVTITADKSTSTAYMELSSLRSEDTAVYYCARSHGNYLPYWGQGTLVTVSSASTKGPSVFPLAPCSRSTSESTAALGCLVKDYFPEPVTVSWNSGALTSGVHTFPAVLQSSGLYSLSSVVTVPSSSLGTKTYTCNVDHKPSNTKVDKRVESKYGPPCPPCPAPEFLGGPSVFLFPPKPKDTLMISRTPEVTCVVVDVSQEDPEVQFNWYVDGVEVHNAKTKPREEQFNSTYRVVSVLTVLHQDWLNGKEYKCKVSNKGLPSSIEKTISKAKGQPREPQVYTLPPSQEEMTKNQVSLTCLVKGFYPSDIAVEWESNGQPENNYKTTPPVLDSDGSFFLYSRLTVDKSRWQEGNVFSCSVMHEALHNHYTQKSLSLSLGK
light: B1 light
[4]
  cAMP IC50, antagonist assay; CHO-S batch [n]: 51 nM
  cAMP IC50, antagonist assay; Mean of Batch 1 [n]: 54 nM
  cAMP IC50, antagonist assay; Mean of Batch 2 [n]: 54 nM
[5]
  IC50, cAMP activity; after dialysis to pH 3 and 48 h at 40 C: 139 nM
  IC50, cAMP activity; after dialysis to pH 9 and 48 h at 40 C: 64 nM
[6]
  IC50, potency (cAMP); at 4 C for 33 days: 62 nM
  IC50, potency (cAMP); at 40 C for 33 days: 71 nM
[7]
  IC50, cAMP antagonist assay; after 5 freeze/thaw cycles: 32 nM

B5: P1C4-h2 Fab (Fab, V domains shown)
VH: B2 VH with G27Y, T28E
VL: EIVLTQSPATLSLSPGERATLSCRASQSVSSSYLHWYQQKPGQAPRLLIYSTSNLASGIPARFSGSGSGTDFTLTISRLEPEDFAVYYCHQYHRSPPTFGQGTKVEIK
[8]
  IC50 cAMP assay (Fab), CB1 TRex CHO cells: 52 nM
[9]
  IC50 (read off the curve): ~30 nM

B6: P1C4-h4 Fab (Fab, V domains shown)
VH: B2 VH with G27Y, T28E, A61N, Q62G
VL: B5 VL
[8]
  IC50 cAMP assay (Fab), CB1 TRex CHO cells: 43 nM
[9]
  IC50 (read off the curve): ~40 nM

B7: 36E12B6C2 IgG (antibody, V domains shown)
VH: QVQLQQSGAELVRPGSSVKISCKASGYEFSYYWMNWVKQRPGQGLQWIGQIYPGDGDTNYNGKFKGKATLTADKSSSTAYMHLTSLTSEDSAVYFCARSGGNPFAFWGQGTLVTVSA
VL: DIQMTQTSSSLSASLGDRVTFSCRASQDISNYLNWYQQKPDGTVKLLIYYTSRLHSGVTSRFRGSGSGTDYSLTISNLEQEDVATYFCQQGHTLPWSFGGGTKLEIKR
notes: Hybridoma-derived
[10]
  binding result: no binding

B8: PA2LR3-P6G7 (chimeric) (antibody, human IgG1, kappa, V domains shown)
VH: EVQLQQSGAELVRPGSSVKISCKASGFAFSNYWMNWVKQRPGQGLEWIGQIYPGDGDTNFNGKFKGRAILTADISSNTAYMQLSSLTSEDSAVYFCARSHGNYFPYWGQGTLVTVSA
VL: DIVLTQSPAIMSASLGERVTMTCTASSSVSSSYLHWYQQKPGSSPKLWIYSTSNLASGVPARFSGSGSGTSYSLTISSMEAEDAATYYCHQHHRSPPTFGAGTKLELKR
[11]
  EC50, cAMP agonist functional assay, CB1 TRex CHO cells: > 300 nM

B9: PA2LR3-P2D3 (chimeric) (antibody, human IgG1, kappa, V domains shown)
VH: B8 VH with F27Y, N31Y, F60Y, R67K, I69T, I74K, N77S, N102S, P105A
VL: DIELAQSPASLAVSLGQRATISCRASESVDSYGNSFMHWYQQKPGQPPKLLIYLASNLESGVPARFSGSGSRADFTLTIDPVEADDAATYYCLQYASSPPTFGAGTKLEIKR
[11]
  EC50, cAMP agonist functional assay, CB1 TRex CHO cells: > 300 nM

B10: PA2LR3-P4B1 (chimeric) (antibody, human IgG1, kappa, V domains shown)
VH: B8 VH
VL: B8 VL with D1Q, H92Y, P97L
[11]
  EC50, cAMP agonist functional assay, CB1 TRex CHO cells: > 300 nM

B11: PA2LR3-P6B12 (chimeric) (antibody, human IgG1, kappa, V domains shown)
VH: B8 VH with F27Y, N31Y, F60Y, R67K, I69T, I74K, N77S, P105A
VL: B8 VL with D1Q, H92Y, P97L, T98A
[11]
  EC50, cAMP assay in the presence of CP55940, CB1 TRex CHO cells: ~1000 nM
